Reference: the DeepSol protein solubility set

Assay: soluble on expression in E. coli; label from the status in PepcDB or PDB records

Soluble on expression in E. coli, not soluble:
MGSDKIHHHHHHMTKLPATSDIYISFFMFTTNLQPDNLDYRRIVVAHIKKLQRFGYSGFEFPIAPGLPENYAQDLENYTNLRHYLDSEGLENVKISTNVGATRTFDPSSNYPEQRQEALEYLKSRVDITAALGGEIMMGPIVIPYGVFPTTDFNEPIWSDELQEHLKVRYANAQPILDKLGEYAEIKKVKLAIEPITHWETPGPNKLSQLIEFLKGVKSKQVGVVIDSAHEILDGEGPEIFKTQVEYLAQQGRLHYVQVSPPDRGALHTSWLPWKSFLTPIVKVYDGPIAVEIFNAIPAFTNSLRLTRRKFWIPDEDPPNQYPNAYDIADEAIKVTRKELKKIGSK, MGSDKIHHHHHHMTKPNQDAIGMLPFKQSTVSLQVQEHYKTPMLLLGYQQRWCADLTPVKVCEKSRRIGLSWGEAADSALFAASQKGMDTWYIGYNKDMAQEFIRDCADWAKAYGLAAGEIEETEEIFKEGDEEKAILAYVIRFSSGWRITALSSRPSNLRGKQGRVIIDEAAFHDDLPELLKAAMALLMWGGQVHIISTHNGVDNPFNELVNEVRAGKKPYSLHTITFDDAIKDGLYQRICLRLGRTWSQQAQDEWVAEIRASYGDAAAEELDCIPRNSGGAWLTRALIESRMNADTPRLCLEKKDEFALQPEPIRNREIAQWCDENLYPVLTALPEKQRHFLGMDFARSGDLSVIAIGQEQSDLCLKNVLLLELSNIPFAQQEQIYFYIGDRLPRFSKAANDARGNGQSLSEKAFDRYGAIVEGVMLSESWYREHTAPFKAALEDDTLFDIVKNDDVLADLRAFQVVKGIPRLPDKRTVGQNKTKRHGDAAIAYLLLHYAYRTDQSFEINFRSTGTRTTTQLFNNNSFERVRTGRGFGSIRGGNDFRGY, MGSDKIHHHHHHMTLLDKDLVSIQEVRTLVRRSKVAQEKLSKMSQEQIDKIVKAVVDAAFNNATKLAKMANEETGFGKWEDKVIKNTFASMGVYETLKNTKTIGIIGEDKEANTIDIATPVGVVAGLIPSTNPTSTVIYKTIISLKAGNTIVFSPHPNAKNCILETVNIISDAAIKAGAPEDSILCITNPSIVGTNELMKHKDTNLILATGGEAMVRAAYSSGTPAIGVGPGNGPAFIDKSANVKLAIKRIIDSKTFDNGVICASEQSIVIEKSMEETVLKELKNQGAYVLNEEESERLAKFILRANGTMNPQIVGKSVEVIANLADLTNVPKNTKVLVARENKVGHNVAYSREKLTPILAFYVEENVEAIMNRCREILLNEGAGHTFSMHVNDEELVKRFALNMPVSRILVNTPSALGGIGASTNLVPALTLGCGAIGGSSTSNNIGPLDLINVKRVAYGIKEIEELGRDKSQVEKSMFDSMDKEELINLLVQKLFKELA, MGSDKIHHHHHHMTLLIVGATGTLGRQVARRAIDEGYKVRCLVRSSKKAAFLKEWGAELVPGNLRYPDTLAAALVGVTQVIDASTSRPTDSLSIKQVDWEGKVALIQAAKAAGVERFIFFSILDADKYPEVPLMEIKRCTELFLAESGLNYTILRLAGFMQGLIGQYGIPILEGQPVWVTGNSSPIAYMDTQDIAKFAIRALSVPETENQAFPVVGTRAWSAEEIINLCERLSGKDARVTRMPISLLRAVRGLMRSFQWGWNVADRLAFTEVLASGKQLNASMDEVYTVFGLDPQQTTTLESYLQEYFSRIMKKLKEVDYQKNKNKKQKPKKTPFKQSSKANSQ, MGSDKIHHHHHHMTLLLKENDVINLLDYKQIYGALVNAFLLFENKFAINLERSRISFHGTTLTFQAAGMENYIGYKTFISGNHLTFLYDTSGNLLSIIESDRLSQARTAVLSILATDYVYGDFSSLGVIGLGKYGLAIVEIANQLKKGIKINVFTPSQQRMEKALSILRGEGIDVSPKDSIKRVCEESEVVTTITKAKDPFLKLEYVNNKRIHINAMGSNIPEKIEIFPEVIKASNLIVVEELEHEFKRIRRVSHRKRMGMLDMSKITLLSWILSRKINVQKEGITIFKSVGIGLEDLAVGKLIYEKALSKGLGTEIEVKGVWYRESEKK, MGSDKIHHHHHHMTLNIDQESCIKCGKCVRVCPSDIFTQERAGETIGLVRVESCIVCGHCVDVCPTGSVSHSEFPPEKTHTIDYSQMPTPEQVMLLIKSRRSNRTLTSRPVPKEMLDKIVEAAHSAPTATNSQSLSFTVVTDPRKLRQVSDYTIGVFDSLAKLLLNPVVKCVVKPFMKDVYKYVPVFNRLKEEHKAGKDPILRKATALLLIHTPKSNRFGSEDANLAYQNASLMAQSLGVSQIYMGFVLTAIRQEGKDTLAKTLGIDGKIQAIMALGIPAFKYPKYTDRKEIVKNYIE, MGSDKIHHHHHHMTLSKERKLHIPFERDGDLMDIGSYPHWLQDVVGTVRAARDRVRFHEVFSLMRDGRLAPRQLAAFFVNGWPVVEQFPKYMSMNLLKANGTNSSGEEKARRYLIRNIRVELNHVEHWVNWAEASGVPRRQLTDGDSPPAALALSHWCWKSSSADTLAASIAATNYAIEGVTGEWSADLCRSDVYEMGFPEAVRGRAMRWLRLHSSYDDKHPWEALDIVATILGQSPSTEQVRDVAAGIERSFRYFEMSLSCCLDA, MGSDKIHHHHHHMTLTKEQLLNRGIEVIDKAENEGITLRVIGGAAIALIAKKGSELYPRVYKDIDYFGLSSQSTKISRFLEGIGLIPNKRFNALHGHIRLMFFDPIINSTVDVFLDEFVMCHKLVLKDRLRIMKYTIPTSDLFLTKMQIIQLTENDKKDIAALLYDVELGERDDEKTMNYNYIAKILSEDWGFYKTYTINHDRVLEFMKNDKNREIIEPKLVKLREIIEKHPKSIKWKMRAKIGEKVKWYEEPEEVNTNFTQQ, MGSDKIHHHHHHMTMDKLLTVCGLSLEVARTGQQVVKSVSFDLAPGEIFGIVGESGSGKTLATRALISLLPPTIKVADGSVSYKGRDVLKMKENELRHLRGAEIGVVFQEPMTSLNPSMTIGRQLEEGLILHTKASAQERRSLILDMLKRVGIRDPEGALSSYPHEFSGGMRQRIMLASVMLLKPALLIADEPTTALDAVIQRDVMELMVELTRAEGTAILLISHDLPMVARYTSRIVVMEKGAIVEKGRTEDLLKAPQHPYTKKLLSSLPFRGRPRQIDLTSVPMISARDIIVDYAGRKSLFRKNKPKRALHGVSIDIHEGEVVALVGGSGSGKTTLGRTIAGLVTESEGRIQFQGRPRTENWTDYRLNCQMVFQDPYSSLDPRMTIEALVEEALRPVPGLDGKAKRKRTLETLEEVGLGVDYAGRYPHELSGGQRQRVAIARAIARRPRFLIADEPVSALDVTVRAQVLDLFSDLQKRYGFSCLFISHDLGVVEQVADRVVVMQDGRIIEEGDRDTIFDSPKEAYTRRLLSAIPALDQNEKGGVTLKWRLEN, MGSDKIHHHHHHMTNETTTSILEYADTHLKFSMEDLFAYLHKKIGINKSSLAWYLFKLVNENKLVRTGRGMYARILKPSFAPQPAEEVKEVYDLLTTHFPFAKFCIYQGEIIAPLQHHLSPNRIIYVETDRGTAETVFHLLKDDYQDVYLRPNKEMIYRYVDMDSRVFIVKNLVSEAPLQHISGVPIPTLEKLLVDILRDVDFFYLQGSESERIIENAFNLYAINRSRLFRYAGRRKVKEELSTILENLNIV, MGSDKIHHHHHHMTNGVLWRSSLLSDYWFSHLPAALQDSVLHAARQVRKTPGKMLFEKGAAPCGLYALLEGDVRIGGAHFQRLGPRLEPIRRPYWFGEVSLFDEMPRRFDVCSLEQTIFLQVPHSFLVSLLDRHPEYWRHFAALLSQKLGLPLQNPEKLQLLPPRSRVASRLLLLSEGYGPLSHARRLITLDEVTSLQDLSHSALLEVLEDLHERKVVRLGIGQLEVFDVDKLRKIANFSRARAVC, MGSDKIHHHHHHMTNQIKIAVIGVGRWGVHLLRNFLAHPQVDVVAVVDPHPERLAAIKQQFNLDENVVLTTQWEDLKKVPGLTGVAIATPATTHYALIKDSLQQGYHVLAEKPLTLDPAECRELCQLAEQHHLILMVDHTYLFHPAVEQGQTVVQAGKLGDLRYGYATRTHLGPVRQDVDALWDLAIHDIAIFNAWLGQIPVKVQATGTVWLQGAGEQGSREAEGKKDTNFPLPQGLADLVWLTLTYPDGFQAYIHLCWLNPDKQRRLGIVGSLGSLIFDEMSRSSPLTLLHGEFEQQGNHFIPVNQKQVVLELEPGEPLGRVCSCFVDSILNNTPSEVSSGWVGTQLVEILAALTVSLEQGGQPVFLNNCSQV, MGSDKIHHHHHHMTNTETIQSLIDSGEGYNVEFKVRVPSKVRELTEEICAFANADGGYLLIGVDDNGQIIGTGLENDKRSAIQGSISEISPALHCDMYAVNIEDKTVWVIDVPSGKDKPYIFSGSIFVREGANSQKLRTVEEMRSFFQECNKIFFDAIPCSWFNIYTDADEQAIKDFRTEAKLSPSTANKQIFENLELFTDNGVAKNGTAMFFGKQPERKFPHAVTRCVLFKGTTKVYIIDDKTFGGPLYQQYLQAMAWLESKLQVAYKIEGAGPREEIWEIPLTVFKEAIINALSHRDYYEQGATITIEMFDDRVEVSNPGGLLPIVAKDFGHKSMTRNPLIFGLFTRMHLVERVASGIPRMQEAMKEANLPEPDFHTDGMFTVIFKRGISIKNDTVNDTVNDTVNDTVNSKEKEVLKIIQKYPGLNSSKIAELIKKSIPTAKRHLNSLVKSGLIEFRGAQKTGGYYIINQQ, MGSDKIHHHHHHMTPIPFYVPVGNECELFETAWQRRLPLLLKGPTGCGKTRFVTHMAARLQRPLFTVSCHDDLTAADLTGRFLIKGGETVWVDGPLTRAIREGGICYLDEIVEARKDVTVVLHPLTDDRRMLPLERTNEILHAPDTFMLVVSYNPGYQNILKSLKPSTRQRFVALSFNFPPPEIELEIIASESGLARDRCTALVNLATRLRLLKDVDLEESVSTRLLVYCATLMAAGLDPYQAAQAALVEPLSDETEVQQGLLELIHATFG, MGSDKIHHHHHHMTQPQMIHPGETPEQHAAFQARIARGEKIEPGDWMPAEYRRQLIRMISQHAHSEVVGMLPEGEWITRAPTLKRKTILIAKVQDEAGHGQYLYHAAETLGVTREEMLDALLSGKAKYSSIFNYPSLTWADVGMIGWLVDGAAIKNQTMLAGCSYGPYSRAMVRICSEETFHHKQGKEMIVAYAQGTPEQKQMAQDALNRWWWPALMMLGPHDADSPNTGALVQWGIKLKTNDEVRQEFINEHVPELLEAGLTIPDPDLHQDEQGNWIHGPINWDEFWAVVKGQQGLHRERLGTRQQAHEEGAWVREAVQAYAARQLGQAAD, MGSDKIHHHHHHMTQRQERLFVLEASSGGRLFSVNPDGSDKKVIVTGCRIPDGVAIDVLAGHVYWTNMGLPPENDGSIERVDLDGGNRTTIVPSGVTHTPKQLYLEAVGRKLYWGDREGMRVMRCDLDGSHVETLVQTGQGEDDRRDETRWCVGVAVDPAGGHLYWTQKGPSDAGLGKILRAGISLPAGESAAERGDIEVLFEGLPEPIDLELDLAERMLYWTDRGDPPRGNSVNRSPMHPPDAQRTPEILLTHLMEAIGIALDPDGGRMYVTDLAGNVYAAGLDGSNRREILVAQGNLTGIAHAVLPTGTSF
